Results as given in PMC10030265, “The lipid linked oligosaccharide polymerase Wzy and its regulating co-polymerase, Wzz, from enterobacterial common antigen biosynthesis form a complex” (Open Biology, 2023).

Legend:
[1] = biological target: WzyEPA-GST-distrepII (Pectobacterium atrosepticum) (UniProt Q6CZF1); experiment: cryo-EM structure; negative stain and single-particle cryo-EM of the WzyEPA : WzzEPA complex labelled with the IgG anti-strep tag II antibody; model at approximately 20 Å, C2 symmetry, dumbbell of two WzzEPA octamers
[2] = biological target: the molecule itself; experiment: as above
WzyEPA-distrepII = biological target: T1, WzyEPA-distrepII (Pectobacterium atrosepticum, UniProt Q6CZF1 1-463); experiment: quantitative immuno-dot blot; serial dilution of the co-purified complex on nitrocellulose, standard curves of each purified protein, HRP-coupled anti-His and anti-strep tag II, chemiluminescence; corrected for untagged Wzz; settings: both partners purified
T1 construct: WzyE, ECA polymerase, Pectobacterium atrosepticum SCRI 1043 (ATCC BAA-672); cloned into a proprietary vector constructed by Huanting Liu; Predicted 57 kDa; the distrepII tag is TEV protease-cleavable; source: DDM-solubilised membranes; not shown: distrepII, C-terminal, kept
T1 sequence (looked up): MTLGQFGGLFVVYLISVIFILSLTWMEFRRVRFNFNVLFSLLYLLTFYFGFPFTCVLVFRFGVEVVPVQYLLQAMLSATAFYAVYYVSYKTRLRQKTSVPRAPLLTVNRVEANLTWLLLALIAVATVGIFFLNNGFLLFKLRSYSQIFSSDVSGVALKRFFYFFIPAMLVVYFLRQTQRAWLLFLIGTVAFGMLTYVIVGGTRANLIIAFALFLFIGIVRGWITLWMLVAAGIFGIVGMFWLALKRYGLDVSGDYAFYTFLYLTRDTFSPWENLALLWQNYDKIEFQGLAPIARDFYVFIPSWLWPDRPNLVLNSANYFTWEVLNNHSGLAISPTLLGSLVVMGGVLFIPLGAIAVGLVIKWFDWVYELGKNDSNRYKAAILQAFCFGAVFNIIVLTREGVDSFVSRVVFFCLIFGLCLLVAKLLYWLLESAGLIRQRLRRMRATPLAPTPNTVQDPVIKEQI

[3] = biological target: the molecule itself; experiment: cryo-EM structure; TEV-cleaved, SEC-purified WzzEPA : WzyEPA sample at 5 mg/ml in DDM; Titan Krios; C4 symmetry; 3.6 Å; only WzzEPA seen in the map

His6-WzzEPA (from UniProt Q6CZE3 1-348) (natural protein)
stoichiometry N (WzzEPA per WzyEPA) [1]: 8

B1: His6-WzzEPA (natural protein, Pectobacterium atrosepticum, UniProt Q6CZE3 1-348, looked up)
chain: MKSENLSTGNALIDNELDIRGLFRLLWRGKVWPIAIGLLFAVVALGYSYLVKQEWGATSITDKPTVNMLGGYYSQQQFLRNLDARSFSSPQPEQPSISAGAYDEFIMQLAAYDTRRDFWLQTDYYKQRLEGDEKADAALLDELVNNIQFTARDDGKKTNDSVKLVAETSSDSNTLLRQYVVFASQRAANHLNEEIKGAWAARTIFMKSQIKRQEAVAKAIYDREVRSVELALKIAQQQGISRSQTDTPADEIPASEMFLLGRPMLQARLETLQTSGPHYELDYDQNRAMLATLNVGPTLEASFQTYRYLRTPEEPVKRDSPRRAFLMVMWGAIGVLVGAGVALARRLR
notes: WzzE, polysaccharide co-polymerase of enterobacterial common antigen biosynthesis, Pectobacterium atrosepticum SCRI 1043 (ATCC BAA-672); cloned into pEHisTEV; Predicted 42 kDa; His6 tag is TEV protease-cleavable; The methods say that Wzz ran as a double band and that the lower band was not seen by the anti-His antibody (partly untagged); Isolated Wzz may have various oligomeric states; octamer in …
stoichiometry N [2]: 8 subunits in the oligomer
stoichiometry N (WzyEPA-distrepII): 9.6 ± 1.8 His6-WzzEPA : WzyEPA-distrepII (molar ratio)

B2: WzzEPA (TEV protease cleaved, affinity tag removed) (natural protein, Pectobacterium atrosepticum, UniProt Q6CZE3 1-348, looked up)
chain: MKSENLSTGNALIDNELDIRGLFRLLWRGKVWPIAIGLLFAVVALGYSYLVKQEWGATSITDKPTVNMLGGYYSQQQFLRNLDARSFSSPQPEQPSISAGAYDEFIMQLAAYDTRRDFWLQTDYYKQRLEGDEKADAALLDELVNNIQFTARDDGKKTNDSVKLVAETSSDSNTLLRQYVVFASQRAANHLNEEIKGAWAARTIFMKSQIKRQEAVAKAIYDREVRSVELALKIAQQQGISRSQTDTPADEIPASEMFLLGRPMLQARLETLQTSGPHYELDYDQNRAMLATLNVGPTLEASFQTYRYLRTPEEPVKRDSPRRAFLMVMWGAIGVLVGAGVALARRLR
notes: WzzE, Pectobacterium atrosepticum SCRI 1043; residues I39-V337 modelled, residues 1-39 and 338-348 not visualized; also called full length WzzEPA; source: E. coli C43(DE3), co-expressed with WzyEPA; not shown: His6, N-terminal, cleaved
stoichiometry N [3]: 8 subunits in the oligomer
